The test deals with mouse TNFR1 on L929 cells (mouse) (UniProt P25118). The experiment in a line: cell-based or functional assay.

Experimental findings from patent publication US20080008713A1 are described below.

Sequence of mouse TNFR1 on L929 cells (mouse) (P25118 30-454): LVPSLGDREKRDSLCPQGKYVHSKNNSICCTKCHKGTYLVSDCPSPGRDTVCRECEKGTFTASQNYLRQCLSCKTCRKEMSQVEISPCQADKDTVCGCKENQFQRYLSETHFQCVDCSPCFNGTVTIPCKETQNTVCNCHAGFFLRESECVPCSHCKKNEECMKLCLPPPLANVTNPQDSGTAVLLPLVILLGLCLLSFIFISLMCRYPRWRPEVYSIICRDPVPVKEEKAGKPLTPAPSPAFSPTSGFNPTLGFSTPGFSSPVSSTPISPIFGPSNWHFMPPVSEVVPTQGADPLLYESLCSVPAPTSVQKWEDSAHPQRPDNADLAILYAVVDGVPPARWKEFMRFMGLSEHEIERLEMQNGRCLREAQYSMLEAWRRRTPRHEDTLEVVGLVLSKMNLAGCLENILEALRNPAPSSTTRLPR

Regarding “anti-TNFR1 antibody AF-425-PB (R&D Systems)”, the ND50 of induced cytotoxicity, modified L929 assay without TNF-α turned out to be 100 pM. For the substance “anti-TNFR1 antibody MAB430 (R&D Systems)”, the ND50 of cell killing, modified L929 assay without TNF-α worked out at 10 nM.
